Paper PMC2375353, “Effective treatment of experimental U-87MG human glioblastoma in nude mice with a targeted cytotoxic bombesin analogue, AN-215” (British Journal of Cancer, 2002)

Legend:
[1] = General toxicity (mortality, body weight); format: in vivo, nude mice; conditions: for Final BW: mean±s.e.
Procedure: Experiment 1 was started when tumours had grown to approximately 40 mm^3 in volume. Animals were randomly divided into three treatment groups: group 1(10 mice), control, which received vehicle solution; group 2 (10 mice), injected with cytotoxic radical AN-201; group 3 (11 mice), given cytotoxic BN analogue AN-215. Cytotoxic compounds were injected through the jugular vein at a dose of 150 nmol kg^−1 of body weight (BW) on days 1, 8, 15 and 22. Tumour volume (length×width×height×0.5236) and BW were measured twice a week. The experiment was terminated on day 29. […] Tumours were excised and weighed. Tumour specimens were snap-frozen and stored at −70°C until extraction of RNA for reverse transcription-polymerase chain reaction (RT–PCR). Tumour volume doubling time was calculated between day 1 and 29 using the formula: […]
Experiment 2 was started when U-87MG tumours had grown to 70–84 mm^3 in volume. The animals were divided into the following treatment groups: group 1 (10 mice), control, vehicle solution; group 2 (10 mice), analogue AN-215; group 3 (five mice), unconjugated mixture of the cytotoxic radical AN-201 and BN antagonist RC-3095. All compounds were injected i.v. at 150 nmol kg^−1 of BW on days 1, 10, and 17. In addition, one group of tumour-bearing mice received an i.v. injection of 200 μg of BN antagonist RC-3095 15 min before each administration of AN-215 at a dose of 150 nmol kg^−1 of BW on days 1, 10 and 17 as in the case of group 2. The experiment was terminated on day 20 as described above.
(§1) General toxicity was evaluated on the basis of mortality rate and changes in BW. Toxicity to BN receptor-positive organs was assessed by measuring gastrin release in response to GRP stimulation ([Plonowski et al, 2000]). At the end of experiment 1, blood samples were collected 5 min after i.v. injection of 2 μg of GRP(14-27) dissolved in 100 μl of 5% mannitol. Serum gastrin concentrations were measured by double-antibody radioimmunoassay with a kit provided by ICN Pharmaceuticals Diagnostic Division (Orangeburg, NY, USA). The interassay variation was 10.6%, and the intraassay variation was 6%.

[2] = test system: BN receptor-positive organs; test: GRP-stimulated serum gastrin release; format: in vivo, nude mice; conditions: for Effect on GRP-stimulated gastrin release: experiment 1, after i.v. stimulation with GRP(14-27); for GRP(14-27)-evoked serum gastrin level: experiment 1 end, 5 min after i.v. 2 μg GRP(14-27), radioimmunoassay, control 223.0±17.9, mean±s.e.
Procedure: as §1, with “At the end of experiment 1, blood samples were collected 5 min after i.v. injection of 2 μg of GRP(14-27) dissolved in 100 μl of 5% mannitol.” left out

hNMBR/BRS-2 = test: RT-PCR of hNMBR/BRS-2 mRNA in U-87MG tumours; format: in vivo, human; conditions: experiment 1 tumours; normalised vs hGAPDH; control 7.6±3.5
Procedure: Total RNA was extracted from frozen tissue samples by using RNAzolB (Tel-Test, Friendswood, TX, USA) according to the manufacturer's instructions. Concentrations of total RNA were calculated by measuring the OD260 value. Total RNA (4 μg) was subjected to electrophoresis for 2 h at 70 V in 10 μl of sample buffer containing 1× MOPS buffer (pH 6.5), 6.4% formaldehyde, 48% deionized formamide, 0.25% w v^−1 bromophenol blue, 0.05% glycerol and 0.25 mg ml^−1 ethidium bromide. The RNA gel contained 1.4% agarose, 1×MOPS (pH 6.5) and 1.73% formaldehyde.
The RT–PCR was performed using Gene Amp RNA Core Kit (Perkin-Elmer, Foster City, CA, USA). To avoid genomic DNA contamination, all samples were subjected to DNase digestion before RT–PCR. RNA (2 μg) was treated with 0.3 unit of RQ1 RNase-free DNase (Promega, Madison, WI, USA) at 37°C for 30 min in 19 μl of mixture containing 5 mM MgCl2, 1× PCR buffer, 1 mM of each dNTP, 1 unit RNase inhibitor and 2.5 μM random hexamers. The reaction was terminated by enzyme denaturation at 99°C for 5 min. […]
The PCR amplification of the cDNAs for human glyceraldehyde-3-phosphate dehydrogenase (hGAPDH), GRP receptor (hGRPR, BRS-1) and neuromedin-B receptor (hNMBR, BRS-2) was performed as follows. […] The number of cycles was determined in preliminary experiments to be within the exponential range of PCR amplification.

[3] = parameters: method as in 2 sources, one per row (each row's own in cited_ref): ref Nagy et al, 1997 ||| ref not printed in the sentence (AN-201: Nagy et al, 1996); conditions: cited from earlier work
Source text: Current treatment options for malignant gliomas, including surgery, radiation, and chemotherapy, are of limited effectiveness, and novel therapeutic modalities must be explored. Targeting of antineoplastic agents to cancer cells by linking them to a ligand with high affinity for tumour cells should improve tumour growth inhibition and decrease peripheral toxicity ([Schally and Nagy, 1999]). The presence of high affinity receptors for bombesin (BN)-like peptides on a wide variety of tumours prompted us to employ some of our powerful BN/gastrin releasing peptide (GRP) antagonists as carrier mole ... || Recently, we developed a series of targeted cytotoxic conjugates based on analogues of peptide hormones such as luteinizing hormone-releasing hormone(LH-RH), somatostatin and BN/GRP, for which high affinity receptors are expressed on a variety of tumours ([Schally and Nagy, 1999]; [Nagy and Schally, 2001]).

[4] = test system: BN receptors on membrane preparations from U-87MG tumours; test: 125I-[Tyr4]BN binding characteristics (Kd, Bmax) of BN receptors on U-87MG tumour membranes; parameters: species or system human; conditions: AN-215-treated vs control
Procedure: Binding characteristics of BN receptors on membrane preparations from U-87MG tumours were determined by ligand competition assays using ^125I-labelled [Tyr^4]BN, as reported earlier ([Halmos and Schally, 1997]). […] IC50 value was calculated with a computerized curve fitting programme and is defined as the concentration of AN-215 causing a 50% inhibition of ^125I-[Tyr^4]BN binding.

[5] = experiment 1, 150 nmol kg^-1 i.v. days 1, 8, 15, 22
[6] = experiment 1, 150 nmol kg^-1 i.v. days 1, 8, 15, 22, control 0/10
[7] = experiment 1, day 29, control 29.3±1.0

COc1cccc2c1C(=O)c1c(O)c3c(c(O)c1C2=O)C[C@@](O)(C(=O)CO)C[C@@H]3O[C@H]1C[C@H](N2C=CCC2)[C@H](O)[C@H](C)O1 [AN-201, 2-pyrrolino-doxorubicin]
Mortality, % of animals [1, 5]: 20% | Mortality (number of dead animals/number of total) [1, 6]: 2/10 | Final BW [1, 7]: 25.5 ± 0.8 g | Effect on GRP-stimulated gastrin release [2]: Neither AN-215 nor AN-201 affected GRP-stimulated gastrin release | GRP(14-27)-evoked serum gastrin level [2]: 251.5 ± 22.1 pg/mL | hNMBR/BRS-2 mRNA expression (hNMBR/BRS-2): 10.9±3.6 a.u. | Potency relative to DOX (fold) ([3]; in vitro, ref not printed in the sentence (AN-201: Nagy et al, 1996)): 1000 times

Gln-Trp-Ala-Val-Gly-His-Leu-ψ(CH2-NH)-Leu-NH2 [AN-215]
Effect of treatment on binding characteristics of receptors for BN/GRP [4]: did not affect the binding characteristics | Toxicity by BW and mortality ([1]; both experiments, 150 nmol kg^-1 i.v.): not toxic | Mortality, % of animals [1, 5]: 9% | Mortality (number of dead animals/number of total) [1, 6]: 1/11 | Final BW, % of control ([1]; experiment 1, day 29): 87% | Final BW [1, 7]: 25.4 ± 0.6 g | Mortality (number of dead animals/number of total) ([1]; experiment 2, 150 nmol kg^-1 i.v. days 1, 10, 17, control 1/10): 0/10 | Toxicity-related deaths ([1]; experiment 2, AN-215 150 nmol kg^-1 without pretreatment): no toxicity-related deaths | Mortality, % of animals, after RC-3095 pretreatment ([1]; experiment 2, RC-3095 200 μg i.v. about 15 min before AN-215): 11% | Final BW, % of control ([1]; experiment 2, day 20): 90% | Final BW ([1]; experiment 2, day 20, control 30.2±0.8): 27.3 ± 0.9 g | Damage to gastrointestinal cells ([2]; GRP-stimulated gastric secretion, this study and also ref Plonowski et al, 2000): no specific damage to the gastrointestinal cells | Effect on GRP-stimulated gastrin release [2]: Neither AN-215 nor AN-201 affected GRP-stimulated gastrin release | GRP(14-27)-evoked serum gastrin level [2]: 257.9 ± 11.6 pg/mL | hNMBR/BRS-2 mRNA expression (hNMBR/BRS-2): 3.3±1.0 a.u. | Antiproliferative effect ([3]; ref Nagy et al, 1997): retains the antiproliferative effect of its cytotoxic moiety
